One block for each binder: values may come before it. [ ]: non-standard residue; d: D form. Phe(4-Me) = Cc1ccc(C[C@H](N)C(=O)O)cc1; Phe(2-Me) = Cc1ccccc1C[C@H](N)C(=O)O; Arg(Me) = CNC(=N)NCCC[C@H](N)C(=O)O; Dap(CONH2) = NC(=O)NC[C@H](N)C(=O)O; Ala(cPr) = N[C@@H](CC1CC1)C(=O)O; Hyp = O=C(O)[C@@H]1C[C@@H](O)CN1; Cha = N[C@@H](CC1CCCCC1)C(=O)O; Cit = NC(=O)NCCC[C@H](N)C(=O)O
Target: human OT7T175 (metastin receptor) (human) (UniProt Q969F8)
Test: cell-based or functional assay

UniProt Q969F8, sequence (Q969F8 whole entry L364H): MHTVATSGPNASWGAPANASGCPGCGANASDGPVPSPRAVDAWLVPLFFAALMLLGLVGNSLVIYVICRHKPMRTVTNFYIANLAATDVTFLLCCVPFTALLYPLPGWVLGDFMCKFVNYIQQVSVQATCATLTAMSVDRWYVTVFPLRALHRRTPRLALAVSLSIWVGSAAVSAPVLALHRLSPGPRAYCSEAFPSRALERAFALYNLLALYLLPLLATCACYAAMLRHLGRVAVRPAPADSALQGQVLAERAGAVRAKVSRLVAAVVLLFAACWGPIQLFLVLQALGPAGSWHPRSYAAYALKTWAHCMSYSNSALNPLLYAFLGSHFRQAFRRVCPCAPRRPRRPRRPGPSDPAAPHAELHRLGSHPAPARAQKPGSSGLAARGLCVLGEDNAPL

B1: des(1)-Ac-[D-Tyr2,Glu3,Alb4,Thr5,Cha6,Gly7Ψ((E)CH═CH)Leu8,Arg(Me)9,Trp10]MS10 (peptide)
peptide: Ac-[dY]E[Dap(CONH2)]T[Cha]GL[Arg(Me)]W-NH2
modifications: also: Gly7-Leu8 amide bond replaced by (E)-CH═CH-
Specific Activity (EC50 of test compound based on EC50 of Metastin (45-54); intracellular calcium, FLIPR) (ratio to EC50 of Metastin (45-54)): 0.5

B3: des(1)-Ac-[D-Tyr2,Asp3,Thr5,Cha6,Ala(cPr)8,Arg(Me)9,Trp10]MS10 (peptide)
peptide: Ac-[dY]DNT[Cha]G[Ala(cPr)][Arg(Me)]W-NH2
SMILES: CNC(=N)NCCC[C@H](NC(=O)[C@H](CC1CC1)NC(=O)CNC(=O)[C@H](CC1CCCCC1)NC(=O)[C@@H](NC(=O)[C@H](CC(N)=O)NC(=O)[C@H](CC(=O)O)NC(=O)[C@@H](Cc1ccc(O)cc1)NC(C)=O)[C@@H](C)O)C(=O)N[C@@H](Cc1c[nH]c2ccccc12)C(N)=O
Specific Activity (EC50 of test compound based on EC50 of Metastin (45-54); intracellular calcium, FLIPR) (ratio to EC50 of Metastin (45-54)): 2.5

B4: des(1)-Ac-[D-Tyr2,Hyp3,Alb4,Thr5,Cha6,Gly7Ψ((E)CH═CH)Leu8,Arg(Me)9,Trp10]MS10 (peptide)
peptide: Ac-[dY][Hyp][Dap(CONH2)]T[Cha]GL[Arg(Me)]W-NH2
modifications: also: Gly7-Leu8 amide bond replaced by (E)-CH═CH-
Specific Activity (EC50 of test compound based on EC50 of Metastin (45-54); intracellular calcium, FLIPR) (ratio to EC50 of Metastin (45-54)): 0.4

B5: des(1)-Ac-[D-Tyr2,Hyp3,Alb4,Thr5,Gly7Ψ((E)CH═CH)Leu8,Arg(Me)9,Trp10]MS10 (peptide)
peptide: Ac-[dY][Hyp][Dap(CONH2)]TFGL[Arg(Me)]W-NH2
modifications: also: Gly7Ψ((E)CH═CH)Leu8: amide between Gly and Leu replaced by (E) alkene
Specific Activity (EC50 of test compound based on EC50 of Metastin (45-54); intracellular calcium, FLIPR) (ratio to EC50 of Metastin (45-54)): 0.6

B6: des(1)-Ac-[D-Tyr2,Glu3,Thr5,Cha6,Gly7Ψ((E)CH═CH)Leu8,Arg(Me)9,Trp10]MS10 (peptide)
peptide: Ac-[dY]ENT[Cha]GL[Arg(Me)]W-NH2
modifications: also: Gly7-Leu8 amide bond replaced by (E)-CH═CH-
Specific Activity (EC50 of test compound based on EC50 of Metastin (45-54); intracellular calcium, FLIPR) (ratio to EC50 of Metastin (45-54)): 0.5

B7: des(1)-Ac-[D-Tyr2,Hyp3,Glu4,Thr5,Cha6,Gly7Ψ((E)CH═CH)Leu8,Arg(Me)9,Trp10]MS10 (peptide)
peptide: Ac-[dY][Hyp]ET[Cha]GL[Arg(Me)]W-NH2
modifications: also: Gly7Ψ((E)CH═CH)Leu8: amide between Gly and Leu replaced by (E) alkene
Specific Activity (EC50 of test compound based on EC50 of Metastin (45-54); intracellular calcium, FLIPR) (ratio to EC50 of Metastin (45-54)): 4.6

B8: des(1)-Ac-[D-Tyr2,Hyp3,Alb4,Thr5,Arg(Me)9,Trp10]MS10 (peptide)
peptide: Ac-[dY][Hyp][Dap(CONH2)]TFGL[Arg(Me)]W-NH2
SMILES: CNC(=N)NCCC[C@H](NC(=O)[C@H](CC(C)C)NC(=O)CNC(=O)[C@H](Cc1ccccc1)NC(=O)[C@@H](NC(=O)[C@H](CNC(N)=O)NC(=O)[C@@H]1C[C@@H](O)CN1C(=O)[C@@H](Cc1ccc(O)cc1)NC(C)=O)[C@@H](C)O)C(=O)N[C@@H](Cc1c[nH]c2ccccc12)C(N)=O
Specific Activity (EC50 of test compound based on EC50 of Metastin (45-54); intracellular calcium, FLIPR) (ratio to EC50 of Metastin (45-54)): 0.5

B10: des(1)-Ac-[D-Tyr2,Hyp3,Thr5,Gly7Ψ((E)CH═CH)Leu8,Arg(Me)9,Trp10]MS10 (peptide)
peptide: Ac-[dY][Hyp]NTFGL[Arg(Me)]W-NH2
modifications: also: Gly6-Leu7 amide replaced by (E)CH=CH
Specific Activity (EC50 of test compound based on EC50 of Metastin (45-54); intracellular calcium, FLIPR) (ratio to EC50 of Metastin (45-54)): 0.6

B12: des(1)-Ac-[D-Tyr2,Hyp3,Cit4,Thr5,Cha6,Gly7Ψ((E)CH═CH)Leu8,Arg(Me)9,Trp10]MS10 (peptide)
peptide: Ac-[dY][Hyp][Cit]T[Cha]GL[Arg(Me)]W-NH2
modifications: also: Gly7Ψ((E)CH═CH)Leu8: amide between Gly and Leu replaced by (E) alkene
Specific Activity (EC50 of test compound based on EC50 of Metastin (45-54); intracellular calcium, FLIPR) (ratio to EC50 of Metastin (45-54)): 0.9

B13: des(1)-Ac-[D-Tyr2,Glu3,Thr5,Cha6,Ala(cPr)8,Arg(Me)9,Trp10]MS10 (peptide)
peptide: Ac-[dY]ENT[Cha]G[Ala(cPr)][Arg(Me)]W-NH2
SMILES: CNC(=N)NCCC[C@H](NC(=O)[C@H](CC1CC1)NC(=O)CNC(=O)[C@H](CC1CCCCC1)NC(=O)[C@@H](NC(=O)[C@H](CC(N)=O)NC(=O)[C@H](CCC(=O)O)NC(=O)[C@@H](Cc1ccc(O)cc1)NC(C)=O)[C@@H](C)O)C(=O)N[C@@H](Cc1c[nH]c2ccccc12)C(N)=O
Specific Activity (EC50 of test compound based on EC50 of Metastin (45-54); intracellular calcium, FLIPR) (ratio to EC50 of Metastin (45-54)): 0.4

The next lines start with the values.

Specific Activity (EC50 of test compound based on EC50 of Metastin (45-54); intracellular calcium, FLIPR) (ratio to EC50 of Metastin (45-54)): 0.6
B2: des(1)-Ac-[D-Tyr2,Hyp3,Thr5,Ser7,Arg(Me)9,Trp10]MS10 (peptide)
peptide: Ac-[dY][Hyp]NTFSL[Arg(Me)]W-NH2
SMILES: CNC(=N)NCCC[C@H](NC(=O)[C@H](CC(C)C)NC(=O)[C@H](CO)NC(=O)[C@H](Cc1ccccc1)NC(=O)[C@@H](NC(=O)[C@H](CC(N)=O)NC(=O)[C@@H]1C[C@@H](O)CN1C(=O)[C@@H](Cc1ccc(O)cc1)NC(C)=O)[C@@H](C)O)C(=O)N[C@@H](Cc1c[nH]c2ccccc12)C(N)=O

Specific Activity (EC50 of test compound based on EC50 of Metastin (45-54); intracellular calcium, FLIPR) (ratio to EC50 of Metastin (45-54)): 0.9
B9: des(1)-Ac-[D-Tyr2,Hyp3,Thr5,Phe(4Me)6,Arg(Me)9,Trp10]MS10 (peptide)
peptide: Ac-[dY][Hyp]NT[Phe(4-Me)]GL[Arg(Me)]W-NH2

Specific Activity (EC50 of test compound based on EC50 of Metastin (45-54); intracellular calcium, FLIPR) (ratio to EC50 of Metastin (45-54)): 0.7
B11: des(1)-Ac-[D-Tyr2,Hyp3,Thr5,Phe(2Me)6,Arg(Me)9,Trp10]MS10 (peptide)
peptide: Ac-[dY][Hyp]NT[Phe(2-Me)]GL[Arg(Me)]W-NH2

Specific Activity (EC50 of test compound based on EC50 of Metastin (45-54); intracellular calcium, FLIPR) (ratio to EC50 of Metastin (45-54)): 0.7
B14: des(1)-Ac-[D-Tyr2,Lys3,Thr5,Cha6,Ala(cPr)8,Arg(Me)9,Trp10]MS10 (peptide)
peptide: Ac-[dY]KNT[Cha]G[Ala(cPr)][Arg(Me)]W-NH2
modifications: not fully specified; printed as Ac-D-Tyr-Lys-Asn-Thr-Cha-Gly-Ala(cPr)-Arg(Me)-Trp-NH2
